According to the supplement of paper PMC7877785:
± gives the uncertainty stated by the source.

Assay: self-splicing fitness, log relative to wild type (ln ratio); higher = more splicing; Tetrahymena group I intron in knt gene, E. coli kanamycin selection, DiMSum; sequences stand for … in CUCUCU…GGAGGGAAAAGUUAUCAGGCAUGCACCUGGUAGCUAGUCUUUAAACCAAUAGAUUGCAUCGGUUUAAAAGGCAAGACCGUCAAAUUGCGGGAAAGGGGUCAACAGCCGUUCAGUACCAAGUCUCAGGGGAAACUUUGAGAUGGCCUUGCAAAGGGUAUGGUAAUAAGCUGACGGACAUGGUCCUAACCACGCAGCCAAGUCCUAAGUCAACAGAUCUUCUGUUGAUAUGGAUGCAGUUCACAGACUAAAUGUCGGUCGGGGAAGAUGUAUUCUUCUCAUAAGAUAUAGUCGGACCUCUCCUUAAUGGGAGCUAGCGGAUGAAGUGAUGCAACACUGGAGCCGCUGGGAACUAAUUUGUAUGCGAAAGUAUAUUGAUUAGUUUUGGAGUACUCGUGGUCG
Procedure, shortened: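 Six replicate transformations of E. coli BL21(DE3) with a pET-22b(+) library were grown overnight at 37°C or 30°C. The library randomised all eight P1ex-region intron nucleotides, the intron lying in the knt kanamycin-resistance gene, and plates were LB agar with or without 25 μg/mL kanamycin plus 100 μg/mL carbenicillin, 50 μM IPTG and 0.2% rhamnose. Pooled colonies were amplicon-sequenced on an Illumina HiSeq 2500, and fitness is the DiMSum error-weighted combination of wild-type-normalised replicate fold changes, kanamycin versus none.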

| Sequence | self-splicing fitness (ln) (30 °C) | self-splicing fitness (ln) (37 °C) |
| --- | --- | --- |
| CAGAAGCAAUAUUACGAACA | -1.81 ± 0.18 | -0.783 ± 0.17 |
| AACUAGCAAUAUUACGCAAA | -2.38 ± 0.13 | -1.72 ± 0.1 |
| UAUCAGCAAUAUUACGACGG | -0.775 ± 0.098 | 0.242 ± 0.13 |
| UUUAAGCAAUAUUACGAUGC | -1.41 ± 0.37 |  |
| UCUCAGCAAUAUUACGGGCU | -1.77 ± 0.18 | -2.43 ± 0.44 |
| AAGGAGCAAUAUUACGUCUA | -0.839 ± 0.24 | -0.933 ± 0.27 |
| UAGAAGCAAUAUUACGCGGA | -1.64 ± 0.13 | -0.655 ± 0.11 |
| UUAUAGCAAUAUUACGGGAC | -2.91 ± 0.31 | -2.4 ± 0.34 |
| UUGGAGCAAUAUUACGAUUU | -3.2 ± 0.21 | -2.86 ± 0.29 |
| AUCAAGCAAUAUUACGCCUA | -0.765 ± 0.11 | -0.646 ± 0.095 |
| GUGUAGCAAUAUUACGUGUC | -2.67 ± 0.21 | -0.104 ± 0.12 |
| AGGCAGCAAUAUUACGCAAU | -2.26 ± 0.14 | -1.76 ± 0.094 |
| CCCAAGCAAUAUUACGAAGC | -3.21 ± 0.2 | -2.7 ± 0.24 |
| UAUUAGCAAUAUUACGCCUC |  | -3.1 ± 0.48 |
| ACGCAGCAAUAUUACGCUGG | -2.25 ± 0.12 | -1.48 ± 0.14 |
| UUUCAGCAAUAUUACGUGCU | -3.47 ± 0.32 | -2 ± 0.24 |
| CUCCAGCAAUAUUACGGAAC | -4.55 ± 0.46 | -2.33 ± 0.21 |
| GUGGAGCAAUAUUACGCGAU | -2.82 ± 0.32 | -2.31 ± 0.39 |
| GCAAAGCAAUAUUACGCACG | -1.83 ± 0.12 | -0.806 ± 0.11 |
| UUGCAGCAAUAUUACGCCUA | -0.384 ± 0.084 | 0.346 ± 0.11 |
| UAACAGCAAUAUUACGGAGG | -3.85 ± 0.16 | -1.87 ± 0.091 |
| GACCAGCAAUAUUACGGUAC | -2.05 ± 0.09 | -1.75 ± 0.092 |
| ACAAAGCAAUAUUACGUACU | -0.16 ± 0.049 | -0.0261 ± 0.072 |
| CUAGAGCAAUAUUACGUGGA | -3.21 ± 0.19 | -1.68 ± 0.18 |
| CGGGAGCAAUAUUACGUAGC | -2.26 ± 0.32 | -1.05 ± 0.22 |
| UCACAGCAAUAUUACGGAGU | -4.75 ± 0.33 | -3.4 ± 0.23 |

| Sequence | self-splicing fitness (ln) (30 °C) | self-splicing fitness (ln) (37 °C) |
| --- | --- | --- |
| GUGGAGCAAUAUUACGUGUG | -2.65 ± 0.21 | -2.65 ± 0.23 |
| CAACAGCAAUAUUACGCUUC | -3.83 ± 0.24 | -2.18 ± 0.2 |
| CCAAAGCAAUAUUACGAAUA | -3.55 ± 0.32 | -1.51 ± 0.18 |
| UACAAGCAAUAUUACGCCCC | -2.04 ± 0.49 |  |
| ACUGAGCAAUAUUACGGAGG | -2.97 ± 0.18 | -2.76 ± 0.25 |
| GCUCAGCAAUAUUACGGCCU | -1.6 ± 0.14 | -0.188 ± 0.16 |
| AUCCAGCAAUAUUACGUACU | -1.56 ± 0.14 | -0.416 ± 0.15 |
| GCCGAGCAAUAUUACGCGAU | -2.66 ± 0.2 | -3.09 ± 0.37 |
| CAGUAGCAAUAUUACGUCAA | -2.64 ± 0.14 | -2.59 ± 0.26 |
| CGCCAGCAAUAUUACGAUCA | -1.58 ± 0.32 | -0.817 ± 0.34 |
| UGAGAGCAAUAUUACGUCUA | -1.4 ± 0.11 | -0.679 ± 0.12 |
| GACGAGCAAUAUUACGGAUG | -2.45 ± 0.24 | -1.12 ± 0.16 |
| UAACAGCAAUAUUACGGCAG | -0.752 ± 0.077 | -0.814 ± 0.084 |
| GAUCAGCAAUAUUACGUAAC | -0.807 ± 0.093 | -0.643 ± 0.13 |
| GCAGAGCAAUAUUACGAUGC | -4.01 ± 0.32 | -1.99 ± 0.18 |
| CCACAGCAAUAUUACGACCA | -3.99 ± 0.36 | -1.28 ± 0.2 |
| CAGCAGCAAUAUUACGUCGC | -3.31 ± 0.18 | -2.21 ± 0.21 |
| UCGAAGCAAUAUUACGGGUG | -0.763 ± 0.083 | -0.756 ± 0.097 |
| CUUUAGCAAUAUUACGCUGG | -3.05 ± 0.3 | -1.99 ± 0.3 |
| UACUAGCAAUAUUACGCCGA | -1.25 ± 0.19 | -0.403 ± 0.17 |
| UGUCAGCAAUAUUACGUCCA | -0.159 ± 0.094 | -0.505 ± 0.12 |
| CACCAGCAAUAUUACGUUGA | -4.33 ± 0.31 | -2.1 ± 0.13 |
| GGAAAGCAAUAUUACGGGGU | -3.1 ± 0.22 | -3 ± 0.28 |
| CUAAAGCAAUAUUACGGCGA | -3.59 ± 0.25 | -1.96 ± 0.19 |
| CGACAGCAAUAUUACGAACC | -3.27 ± 0.27 | -0.556 ± 0.2 |
| GCCAAGCAAUAUUACGGCAA | -2.23 ± 0.17 | -1.06 ± 0.15 |

| Sequence | self-splicing fitness (ln) (30 °C) | self-splicing fitness (ln) (37 °C) |
| --- | --- | --- |
| UUUCAGCAAUAUUACGGGCC | -4.27 ± 0.46 | -2.37 ± 0.37 |
| UCUGAGCAAUAUUACGUACU | -2.66 ± 0.34 | -2.72 ± 0.48 |
| AGUAAGCAAUAUUACGUAAC | -2.48 ± 0.23 |  |
| GUCGAGCAAUAUUACGUGUU | -4.22 ± 0.28 | -2.09 ± 0.25 |
| UACAAGCAAUAUUACGGUCG | -0.0495 ± 0.068 | -0.0985 ± 0.1 |
| GGACAGCAAUAUUACGUACU | -1.22 ± 0.097 | -0.317 ± 0.1 |
| GGGGAGCAAUAUUACGCUCA | -1.05 ± 0.15 | -0.61 ± 0.21 |
| GAUUAGCAAUAUUACGGAUU | -3.17 ± 0.21 | -2.13 ± 0.23 |
| UCGAAGCAAUAUUACGGAAG | -1.18 ± 0.2 | -2.11 ± 0.38 |
| AGUUAGCAAUAUUACGUCAA | -3.02 ± 0.26 | -0.718 ± 0.13 |
| AAUAAGCAAUAUUACGUCAA | -2.29 ± 0.14 | -2.06 ± 0.12 |
| CCACAGCAAUAUUACGGUUA | -3.14 ± 0.15 | -2.7 ± 0.16 |
| UAUUAGCAAUAUUACGUUCG | -1.13 ± 0.16 | -0.121 ± 0.18 |
| GGCUAGCAAUAUUACGGGCG | -1.34 ± 0.095 | -0.19 ± 0.12 |
| UCCGAGCAAUAUUACGCUAG | -3.12 ± 0.31 | -2.75 ± 0.34 |
| GCGCAGCAAUAUUACGAAAU | -0.982 ± 0.075 | -0.192 ± 0.095 |
| CGUUAGCAAUAUUACGUGGC | -2.5 ± 0.25 | -2.75 ± 0.25 |
| CCCUAGCAAUAUUACGGAAC | -4.39 ± 0.43 | -2.85 ± 0.4 |
| CGUUAGCAAUAUUACGAAUA | -1.54 ± 0.17 | -1.69 ± 0.36 |
| UAACAGCAAUAUUACGUUUC | -4.16 ± 0.26 | -2.44 ± 0.23 |
| CGUGAGCAAUAUUACGCGUA |  | -1.86 ± 0.47 |
| GGACAGCAAUAUUACGUGUG | -1.55 ± 0.05 | -0.79 ± 0.066 |
| GCACAGCAAUAUUACGGCUG | -3.49 ± 0.13 | -2.4 ± 0.14 |
| GUCUAGCAAUAUUACGAGGG | -3.1 ± 0.11 | -1.57 ± 0.09 |
| GCGCAGCAAUAUUACGGCUA | -0.44 ± 0.092 | 0.0852 ± 0.097 |
